This passage reports IC50 and percentage of IL-17a+ cells in mouse CD4+ T cells (flow cytometry) under Th17 polarisation with IL23R-CHR 0, 5 and 25 ug/ml, 72 h; the value given is that results from article PMC3446948, “Protection against Th17 Cells Differentiation by an Interleukin-23 Receptor Cytokine-Binding Homology Region” (PLoS ONE, 2012).

One assay addresses T1, Human IL-23 (human, UniProt Q9NPF7 20-189; P29460 23-328).
T1 construct: Interleukin-23 subunit alpha (p19), human; subunit of the bought heterodimeric cytokine; Interleukin-12 subunit beta (p40), human; also called human IL-23 complex; source: bought: R&D
T1 sequence (looked up) 1: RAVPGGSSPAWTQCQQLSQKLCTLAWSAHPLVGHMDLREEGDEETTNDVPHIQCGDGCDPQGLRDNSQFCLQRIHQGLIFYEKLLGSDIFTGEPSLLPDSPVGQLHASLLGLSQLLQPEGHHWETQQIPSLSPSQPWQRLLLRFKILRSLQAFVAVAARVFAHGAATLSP
T1 sequence (looked up) 2: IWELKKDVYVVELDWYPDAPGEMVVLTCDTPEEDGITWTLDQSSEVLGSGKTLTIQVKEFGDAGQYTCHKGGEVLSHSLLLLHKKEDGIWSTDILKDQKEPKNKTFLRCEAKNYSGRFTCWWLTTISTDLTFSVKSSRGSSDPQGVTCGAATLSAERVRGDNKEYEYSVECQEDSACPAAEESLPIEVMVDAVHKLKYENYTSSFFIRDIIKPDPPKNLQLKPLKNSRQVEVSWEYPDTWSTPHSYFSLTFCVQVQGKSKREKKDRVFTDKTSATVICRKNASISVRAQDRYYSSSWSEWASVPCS
As to the kind of experiment: ELISA; direct binding ELISA: 10 ng/well human IL-23 coated, various concentrations of IL23R-CHR added, bound IL23R-CHR detected by HRP-labelled IL23R mAb; non-linear regression. To be noted: both partners purified.

A further assay has as its target Mouse IL-23 (mouse) (UniProt Q9EQ14).

Chain of Mouse IL-23 (mouse) (Q9EQ14 22-196, chain 1 of 2): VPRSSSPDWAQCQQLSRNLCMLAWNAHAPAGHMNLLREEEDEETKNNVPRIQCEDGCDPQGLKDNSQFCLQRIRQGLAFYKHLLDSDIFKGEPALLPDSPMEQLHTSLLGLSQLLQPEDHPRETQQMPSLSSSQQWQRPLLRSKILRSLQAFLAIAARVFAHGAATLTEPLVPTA
Chain of Mouse IL-23 (mouse) (P43432 23-335, chain 2 of 2, further chain): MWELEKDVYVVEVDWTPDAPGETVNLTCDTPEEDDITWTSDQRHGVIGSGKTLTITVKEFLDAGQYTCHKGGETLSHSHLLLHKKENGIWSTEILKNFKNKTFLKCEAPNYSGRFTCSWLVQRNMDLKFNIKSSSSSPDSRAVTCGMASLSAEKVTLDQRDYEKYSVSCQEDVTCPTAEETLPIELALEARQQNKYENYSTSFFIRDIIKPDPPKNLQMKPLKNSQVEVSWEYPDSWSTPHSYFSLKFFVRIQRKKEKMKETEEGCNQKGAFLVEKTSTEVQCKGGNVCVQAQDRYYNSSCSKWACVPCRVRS

B1: Human IL-23 receptor cytokine-binding homology region (IL23R-CHR, amino acid residues 124-313) (domain or fragment)
chain: PPDIPDEVTCVIYEYSGNMTCTWNAGKLTYIDTKYVVHVKSLETEEEQQYLTSSYINISTDSLQGGKKYLVWVQAANALGMEESKQLQIHLDDIVIPSAAVISRAETINATVPKTIIYWDSQTTIEKVSCEMRYKATTNQTWNVKEFDTNFTYVQQSEFYLEPNIKYVFQVRCQETGKRYWQPWSSLFFH
modifications: Expressed in E. coli (non-glycosylated). The Trx-His6 tag was removed by enterokinase. A short vector/primer-derived N-terminal remnant remains and is omitted: printed as 'A', while the NcoI primer …
As for B1, the IC50 with Human IL-23 turned out to be 90 nM. In the assay with Mouse IL-23 (mouse), the percentage of IL-17a+ cells in mouse CD4+ T cells (flow cytometry) under Th17 polarisation with IL23R-CHR 0, 5 and 25 ug/ml, 72 h; the value given is that at 25 ug/ml is 4.18%.
